Data: patent US20200199217A1 (published 2020)
Residue numbers refer to the chain shown, from its start. One block for each binder: values may come before it.

Key:
hu-IL-36γ = target: T1, hu-IL-36γ (human, UniProt Q9NZH8 18-169); assay: cell-based or functional assay
T1 sequence: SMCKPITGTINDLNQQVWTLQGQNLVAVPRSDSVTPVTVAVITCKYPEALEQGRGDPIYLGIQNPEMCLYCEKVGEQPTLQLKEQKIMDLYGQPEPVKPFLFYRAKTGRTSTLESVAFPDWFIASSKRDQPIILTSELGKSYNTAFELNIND

hu-IL-36α = target: T2, hu-IL-36α (human, UniProt Q9UHA7 6-158); assay: cell-based or functional assay
T2 sequence: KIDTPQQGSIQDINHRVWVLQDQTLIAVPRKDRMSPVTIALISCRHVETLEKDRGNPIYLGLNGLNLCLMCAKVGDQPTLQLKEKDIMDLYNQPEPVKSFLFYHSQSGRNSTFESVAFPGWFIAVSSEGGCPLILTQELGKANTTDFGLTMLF

cy-IL-36γ = target: T3, cy-IL-36γ (cynomolgus monkey, UniProt Q9NZH8 18-167 (human entry), limits assumed); assay: cell-based or functional assay
T3 chain: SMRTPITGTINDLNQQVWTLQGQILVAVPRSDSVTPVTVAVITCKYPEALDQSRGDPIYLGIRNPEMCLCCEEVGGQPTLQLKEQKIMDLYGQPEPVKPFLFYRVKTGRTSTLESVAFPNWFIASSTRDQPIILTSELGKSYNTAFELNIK

cy-IL-36α = target: T4, cy-IL-36α (cynomolgus monkey, UniProt Q9UHA7 14-158 (human entry), limits assumed); assay: cell-based or functional assay
T4 chain: T2 sequence with I2S, D3E, T4M, Q7P, G8V, T24I, M34V, A40S, V74A

hu-IL-36β [1] = target: T5, hu-IL-36β (human); assay: SPR (Biacore 8K), biotinylated hu-IL-36β captured, Fab injected, 37 C
T5 construct: Used biotinylated in SPR and some ELISAs; treated here as the same molecule; also called human IL-36β; IL-36b
T5 chain: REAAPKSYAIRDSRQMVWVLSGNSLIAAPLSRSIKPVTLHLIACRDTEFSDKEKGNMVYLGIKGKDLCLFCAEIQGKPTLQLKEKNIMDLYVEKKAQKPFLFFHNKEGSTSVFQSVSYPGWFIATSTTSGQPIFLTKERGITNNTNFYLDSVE
Procedure: Briefly, a 1:4 dilution of Biotin CAPture Reagent (GE) into HBS-EP buffer (0.01 M HEPES pH 7.4, 0.15 M NaCl, 3 mM EDTA, 0.005% Surfactant P20) was applied to a CAP sensor chip at 2 uL/min flow rate. For kinetics measurements, 6 nM biotinylated human IL-36β was captured at 10 uL/min to achieve ˜50 response units in the second flow cell (FC2). FC1 was kept as a reference. Next, […] serial dilutions of Fab in HBS-P buffer (0.01M HEPES pH 7.4, 0.15M NaCl, 0.005% surfactant P20) from low (3.125 nM) to high (200 nM) were injected (flow rate: 10 uL/min) at 37° C. The sensorgram was recorded and subject to reference and buffer subtraction before evaluating by BIACORE® 8K Evaluation Software (version 1.1.1.7442). Association rates (kₒₙ) and dissociation rates (koff) were calculated using a simple one-to-one Langmuir binding model.

hu-IL-36β [2] = target: T5, hu-IL-36β; assay: cell-based or functional assay
hu-IL-36β [3] = target: T5, hu-IL-36β; assay: cell-based or functional assay
cy-IL-36β = target: T6, cy-IL-36β (cynomolgus monkey); assay: cell-based or functional assay
T6 chain: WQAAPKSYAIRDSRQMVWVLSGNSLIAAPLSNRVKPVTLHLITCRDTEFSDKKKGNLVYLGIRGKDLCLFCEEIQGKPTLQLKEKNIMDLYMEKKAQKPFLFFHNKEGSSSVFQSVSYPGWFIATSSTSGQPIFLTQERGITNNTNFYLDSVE

IC50, HEK Blue SEAP reporter assay (hu-IL-36γ): 7.5 nM | IC50, HEK Blue SEAP reporter assay (hu-IL-36α): 5.7 nM | IC50, HEK Blue SEAP reporter assay with cynomolgus IL-36 on human IL-36 receptor (cy-IL-36γ): 1.71 nM | IC50, HEK Blue SEAP reporter assay with cynomolgus IL-36 on human IL-36 receptor (cy-IL-36α): 0.56 nM
B1: mAb2.0 IgG (antibody, V domains shown)
VH: QLQLQESGPGLVKPSETLSLTCTVSGGSISTSSYYWGWIRQPPGKGLEWIGSIYYTGNTYYNPSLKSRVTISVDTSKNQFSLKLSSVTAADTAVYYCARVRYGVGVPRYFDPWGQGTLVTVSS
VL: QSVLTQPPSVSGAPGQRVTISCTGSSSNIGAHYDVHWYQQLPGTAPKLLIYGNDNRPSGVPDRFSGSKSGTSASLAITGLQAEDEADYYCQSYDYSLSGYVFGGGTKLTVLG

kon (hu-IL-36β [1]): 850000 M⁻¹ s⁻¹
B2: mAb6_2.6 Fab (Fab, V domains shown)
VH: ELQLQESGPGLVKPSETLSLTCTVSGGSITASNYYWGWIRQPPGKGLEWIGSIDYTGSTYYEPSLKSRVTISVDTSKNQFSLKLSSVTAADTAVYYCATGNYYETYLGFDVWGQGTLVTVSS
VL: ESVLTQPPSVSGAPGQRVTISCTGSSSNIGAHYDVHWYQQLPGTAPKLLIYGNDNRPSGVPDRFSGSKSGTSASLAITGLQAEDEADYYCQSYDYSLSGYVFGGGTKLTVL
notes: Recombinant Fab with 8xHis tag

IC50, HEK Blue SEAP reporter assay (hu-IL-36β [2]): 0.64 nM | blocking potency relative to the natural antagonist IL-36Ra, HaCat IL-8 assay (hu-IL-36β [3]): 1000 fold | IC50, HEK Blue SEAP reporter assay with cynomolgus IL-36 on human IL-36 receptor (cy-IL-36β): 1.96 nM
B3: mAb6.0 IgG (antibody, V domains shown)
VH: B2 VH with E1Q, A31S, E62N, T99R, N101K
VL: QESVLTQPPSVSGAPGQRVTISCTGSSSNIGAGYDVHWYQQLPGTAPKLLIYGNTNRPSGVPDRFSGSKSGTSASLAITGLQAEDEADYYCQSYDISLSGWVFGGGTKLTVLG
